Measured values from patent US20250057965A1, “PEPTIDE OLIGONUCLEOTIDE CONJUGATES” (Sarepta Therapeutics, Inc., priority 2015, published 2025).
Values joined by “and” are separate entries in the source; they are usually repeats but may differ in a detail not shown here. Equal values may be shown once.

Key:
[1] = Individual body weights in dose response study; type: in vivo, Mouse (mdx); settings: mdx mice
Method: (§1) Any animal showing signs of distress, particularly if death appeared imminent was humanely euthanized according to Numira Biosciences Standard Operating Procedures. Body weights were recorded on the day after arrival, the day of dosing, and the day of necropsy. Detailed clinical observations were conducted and recorded at 0 minutes, 15 minutes, and 2 hours post-dose to assess tolerability of injections.

[2] = Animal health / clinical observations in dose response study; type: in vivo
Method: (§2) The day of dosing on the study was designated as Study Day 1. Each peptide-oligomer-conjugate was vortexted for approximately 10 seconds prior to dosing, and administered via tail vein as a slow push bolus (˜5 seconds; 200 μL). Dosing was performed over two days. All animals receiving the same peptide-oligomer-conjugate were dosed on the same day. […] Any remaining spare animals were necropsied and tissues collected as specified below.
as §1
Animals unlikely to survive until the next scheduled observation were weighed and euthanized. Animals found dead were weighed and the time of death was estimated as closely as possible. Blood and tissue samples were not collected.
The partial gross necropsy included examination and documentation of findings. All external surfaces and orifices were evaluated. All abnormalities observed during the collection of the tissues listed below were described completely and recorded. No additional tissues were taken.

[3] = Maximum tolerated dose (MTD) study in mdx mice: survival and in-life observations; type: in vivo, Mouse (mdx); settings: for MTD % Survival / MTD in-life observations: n=3
Method: The maximum tolerated dose (MTD) of selected peptide-oligomer-conjugates of the disclosure was determined in mice according to the regimens shown in Table 8. […] PPMO-5 has a MTD>200 mg/kg.
Importantly, the toxicity of a peptide-oligomer-conjugate can be described in two phases: t1 and t2. t1 refers to rapid death, or death within 48 hours, most likely due to cardiopulmonary collapse. t2 refers to chronic kidney toxicity, observed with a peptide-oligomer-conjugate after multiple weekly doses. The MTD measurements described herein refer to ti toxicity (48 hour endpoint).

dystrophin exon 23 = experiment: Dose response for efficacy in mdx mice: % exon 23 skipping by nested RT-PCR; type: in vivo, Mouse (mdx); settings: for % Exon 23 Skip (Average), Diaphragm / % Exon 23 Skip (Average), Heart / % Exon 23 Skip (Average), Quadricep (L): mdx mice, 7 days post-dose, n=5
Description: The aim of this study was to compare efficacy of peptide-oligomer-conjugates of the disclosure in a dose response study in mice. The spacing between the peptide and PMO modulates efficacy. Accordingly, PEG lengths of 3, 4, and 8 were used to systematically increase spacing between Ac-R6-Gly (SEQ ID NO:1) and the PMO. Additionally, an all-D amino acid version of Ac-R6-Gly (SEQ ID NO:1) and Ac-R6-Apa (SEQ ID NO:4) (4-amino phenyl acetic acid; aromatic, hydrophobic linker) were used (Table 2).
Selected peptide-oligomer-conjugates that were tested are listed in Table 2 (the peptide-oligomer-conjugates were formulated in saline and stored at 5° C.).
Animals were randomized into treatment groups based on cage weights as specified in Table 4.
as §2
On day 8 (7 days post-dose), all animals, including any untreated or spare animals, were humanely euthanized with carbon dioxide. Euthanasia was performed in accordance with accepted American Veterinary Medical Association (AVMA) guidelines on Euthanasia, June 2007.
Tissues were collected within 15 minutes or less of euthanasia. All instruments and tools used were changed between treatment groups. All tissues were flash frozen and stored at a temperature lower than −70° C. as soon as possible after collection. The following tissues were collected: liver, kidneys, heart, quads, and diaphragm.
RNA from mouse quadriceps, heart, and diaphragm tissue was purified using GE Illustra RNAspin 96 well extraction kits. Briefly, 400 μL of lysis buffer (RA1+1% 2-mercaptoethanol was added to about 20-30 mg of frozen tissue in a plate with zirconia beads (Biospec) and homogenized using GenoGrinder (Spex Sample Prep) at 4×8 minutes at 1750 RPM; cooling between each run. The homogenate was immediately processed for RNA purification according to the GE RNAspin Illustra 96 well protocol. Total RNA was quantitated with a Nanodrop 2000 spectrophotometer (ThermoScientific).
RNA was analyzed by a classic nested PCR reaction. RT-PCR reagents were from Invitrogen unless otherwise specified. PCR reactions were run in a CFX96 or S1000 thermocycler (BioRad). Final cDNA products were separated on a NuPage 10% TBE gel (Invitrogen) run at 200V, 1 hr at room temperature. Gels were scanned with a Typhoon Trio (GE Healthcare) using a 670 BP 30 Cy5 emission filter and analyzed with ImageQuant software.
Primers used for PCR analysis were as follows: dystrophin outer forward (5′-[…]-3′; SEQ ID NO:9), dystrophin outer reverse (5′-[…]-3′; SEQ ID NO:10), dystrophin inner forward (5′-[…]-3′; SEQ ID NO:11), and dystrophin inner reverse (5′-[…]-3′; SEQ ID NO:12).

[4] = set-up: species or system Mouse (mdx); settings: mouse, in vivo
Description: BUN levels are increased when compared to PPMO-8.

[5] = 5 mg/kg single i.v., day 8, one value per animal, 5 mg/kg
[6] = 10 mg/kg single i.v., day 8, one value per animal, 10 mg/kg
[7] = 20 mg/kg single i.v., day 8, one value per animal, 20 mg/kg
[8] = 40 mg/kg single i.v., day 8, one value per animal (FD = found dead), 40 mg/kg
[9] = 80 mg/kg single i.v., day 8, one value per animal, 80 mg/kg
[10] = 100 mg/kg single i.v. injection
[11] = 150 mg/kg single i.v. injection
[12] = 200 mg/kg single i.v. injection

Row | Compound | Individual body weight, pre-necropsy [1, 5] | Individual body weight, pre-necropsy [1, 6] | Individual body weight, pre-necropsy [1, 7] | Individual body weight, pre-necropsy [1, 8] | Individual body weight, pre-necropsy [1, 9] | MTD % Survival ([3]; 50 mg/kg single i.v. injection) [%] | MTD % Survival [3, 10] [%] | MTD in-life observations ([3]; 100 mg/kg single i.v.) | MTD % Survival [3, 11] [%] | MTD in-life observations ([3]; 150 mg/kg single i.v.) | MTD % Survival [3, 12] [%] | MTD in-life observations ([3]; 200 mg/kg single i.v.) | other results
1 | CC(=O)N[C@@H](CCCNC(=N)N)C(=O)N[C@@H](CCCNC(=N)N)C(=O)N[C@@H](CCCNC(=N)N)C(=O)N[C@@H](CCCNC(=N)N)C(=O)N[C@@H](CCCNC(=N)N)C(=O)N[C@@H](CCCNC(=N)N)C(=O)NCC(=O)N1CCN(C(=O)OCCOCCOCCOC(=O)N2C[C@@H](COP(=O)(N(C)C)N3C[C@@H](COP(=O)(N(C)C)N4C[C@@H](COP(=O)(N(C)C)N5C[C@@H](COP(=O)(N(C)C)N6C[C@@H](COP(=O)(N(C)C)N7C[C@@H](COP(=O)(N(C)C)N8C[C@@H](COP(=O)(N(C)C)N9C[C@@H](COP(=O)(N(C)C)N%10C[C@@H](COP(=O)(N(C)C)N%11C[C@@H](COP(=O)(N(C)C)N%12C[C@@H](COP(=O)(N(C)C)N%13C[C@@H](COP(=O)(N(C)C)N%14C[C@@H](COP(=O)(N(C)C)N%15C[C@@H](COP(=O)(N(C)C)N%16C[C@@H](COP(=O)(N(C)C)N%17C[C@@H](COP(=O)(N(C)C)N%18C[C@@H](COP(=O)(N(C)C)N%19C[C@@H](COP(=O)(N(C)C)N%20C[C@@H](COP(=O)(N(C)C)N%21CCN(C(=O)OCCOCCOCCO)CC%21)O[C@@H](n%21cnc%22c(=O)[nH]c(N)nc%22%21)C%20)O[C@@H](n%20ccc(N)nc%20=O)C%19)O[C@@H](n%19cc(C)c(=O)[nH]c%19=O)C%18)O[C@@H](n%18cnc%19c(N)ncnc%19%18)C%17)O[C@@H](n%17cc(C)c(=O)[nH]c%17=O)C%16)O[C@@H](n%16cc(C)c(=O)[nH]c%16=O)C%15)O[C@@H](n%15cnc%16c(N)ncnc%16%15)C%14)O[C@@H](n%14ccc(N)nc%14=O)C%13)O[C@@H](n%13ccc(N)nc%13=O)C%12)O[C@@H](n%12cc(C)c(=O)[nH]c%12=O)C%11)O[C@@H](n%11cc(C)c(=O)[nH]c%11=O)C%10)O[C@@H](n%10cnc%11c(N)ncnc%11%10)C9)O[C@@H](n9cnc%10c(N)ncnc%109)C8)O[C@@H](n8ccc(N)nc8=O)C7)O[C@@H](n7ccc(N)nc7=O)C6)O[C@@H](n6ccc(N)nc6=O)C5)O[C@@H](n5cnc6c(N)ncnc65)C4)O[C@@H](n4cnc5c(=O)[nH]c(N)nc54)C3)O[C@@H](n3cc(C)c(=O)[nH]c3=O)C2)CC1 (stereo partly drawn) [PPMO-4] | 21.45 g and 22.61 g and 19.15 g and 19.6 g and 21.53 g | 19.41 g and 21.91 g and 18.98 g and 20.43 g and 20.49 g | 20.09 g and 21.25 g and 22.62 g and 20.71 g and 17.08 g | 20.59 g and 18.25 g and 22.63 g and 21.35 g and 21.22 g | 23.86 g and 17.9 g and 21.36 g and 21.1 g and 20.69 g | 100 | 100 | 3/3 slow to recover at 15 min., ok by 2 hours | 100 | 3/3 lethargic at 15 min., ok by 2 hours | 0 | 3/3 lethargic at 15 min and 2 hours, 3/3 dead at 24 hours | Animal health observation ([2]; 5 mg/kg, at necropsy, animal 2406): right eye closed and had a white substance exuding from it; Animal health observation ([2]; 40 mg/kg single i.v.): slow to recover at the 15 minute observation but recovered by the 2 hour observation; Animal health observation ([2]; 80 mg/kg single i.v.): slow to recover at the 15 minute observation but recovered by the 2 hour observation
2 | Ac-dR6-G (all-D amino acid R) (SEQ ID NO: 8) (RRRRRRG; N-acetyl; all-D amino acids; SITE 1 acetylation of N terminus; SITE 1..6 D-Arginine) [PPMO-7] | 22.3 g and 22.46 g and 23.21 g and 21.43 g and 23.41 g | 17.85 g and 22.7 g and 23.56 g and 21.97 g and 21.8 g | 20.85 g and 20.17 g and 21.1 g and 21.38 g and 24.55 g | 22.58 g and 22.21 g and 21.29 g and 18.19 g and 20.93 g | 21.98 g and 22.63 g and 19.65 g and 19.9 g and 22.86 g | 100 | 100 | 3/3 slow to recover at 15 min., ok by 2 hours | 100 | 3/3 slow to recover at 15 min., ok by 2 hours | 33 | 2/3 dead at 15 minutes, 1/3 lethargic at 15 min and 2 hours | Efficacy (% exon 23 skipping), in words (dystrophin exon 23; comparison with other conjugates / linkers): improved efficacy; % Exon 23 Skip (Average), Diaphragm (dystrophin exon 23; 5 mg/kg single i.v. injection): 1%; % Exon 23 Skip (Average), Heart (dystrophin exon 23; 5 mg/kg single i.v. injection): 0%; % Exon 23 Skip (Average), Quadricep (L) (dystrophin exon 23; 5 mg/kg single i.v. injection): 4%; % Exon 23 Skip (Average), Diaphragm (dystrophin exon 23; 10 mg/kg single i.v. injection): 6%; % Exon 23 Skip (Average), Heart (dystrophin exon 23; 10 mg/kg single i.v. injection): 2%; % Exon 23 Skip (Average), Quadricep (L) (dystrophin exon 23; 10 mg/kg single i.v. injection): 11%; % Exon 23 Skip (Average), Diaphragm (dystrophin exon 23; 20 mg/kg single i.v. injection): 30%; % Exon 23 Skip (Average), Heart (dystrophin exon 23; 20 mg/kg single i.v. injection): 13%; % Exon 23 Skip (Average), Quadricep (L) (dystrophin exon 23; 20 mg/kg single i.v. injection): 53%; % Exon 23 Skip (Average), Diaphragm (dystrophin exon 23; 40 mg/kg single i.v. injection): 67%; % Exon 23 Skip (Average), Heart (dystrophin exon 23; 40 mg/kg single i.v. injection): 42%; % Exon 23 Skip (Average), Quadricep (L) (dystrophin exon 23; 40 mg/kg single i.v. injection): 89%; % Exon 23 Skip (Average), Diaphragm (dystrophin exon 23; 80 mg/kg single i.v. injection): 93%; % Exon 23 Skip (Average), Heart (dystrophin exon 23; 80 mg/kg single i.v. injection): 93%; % Exon 23 Skip (Average), Quadricep (L) (dystrophin exon 23; 80 mg/kg single i.v. injection): 92%; Liver and kidney serum chemistry markers [4]: increased liver and kidney serum chemistry markers; Tolerability ([3]; MTD study, in words): not well-tolerated
